Source: patent publication US20050080013A1 (Pfizer, published 2005)
Non-standard residues stand in square brackets, D forms with d. No end group written: not given here. Orn = NCCC[C@H](N)C(=O)O

T1: lecithin:cholesterol acyltransferase (LCAT), purified from human plasma (human, UniProt P04180 25-440)
T1 sequence (looked up): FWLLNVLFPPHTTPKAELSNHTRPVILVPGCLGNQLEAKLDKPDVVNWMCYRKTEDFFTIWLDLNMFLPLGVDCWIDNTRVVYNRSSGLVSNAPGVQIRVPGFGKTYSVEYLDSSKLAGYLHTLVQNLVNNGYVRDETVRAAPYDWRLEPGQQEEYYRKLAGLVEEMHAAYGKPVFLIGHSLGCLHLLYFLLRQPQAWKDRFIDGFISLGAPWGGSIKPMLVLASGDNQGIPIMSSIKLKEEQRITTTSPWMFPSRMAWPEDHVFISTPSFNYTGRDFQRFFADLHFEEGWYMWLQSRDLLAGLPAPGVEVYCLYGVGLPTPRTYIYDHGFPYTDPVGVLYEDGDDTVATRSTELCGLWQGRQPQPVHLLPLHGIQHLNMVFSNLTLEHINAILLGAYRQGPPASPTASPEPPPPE


molecular target: T1, lecithin:cholesterol acyltransferase …; assay: cell-based or functional assay

Row | ACTIVITY (%) LCAT [%] | Binder
1 | 87 | Ac-PVLELFKELLEELKQKLK-NH2 [peptide 195]
2 | 57 | Ac-PLLELLKELLEELKQKLK-NH2 [peptide 206]
3 | 8 | PVLELFDNLLERLLDALQKKLK [peptide 179]
4 | 81 | Ac-PVLDLFRELLEELKNKLK-NH2 [peptide 196]
5 | 1 | PVLDAFRELAEALAQLKK [peptide 225]
6 | 4 | PVLELFLNLLERLLDAWQKKLK [peptide 184]
7 | 96 | Ac-PVLDLFRELLEELKQKLK-NH2 [peptide 193]
8 | 24 | PVLDLFRELLNELWQKLK [peptide 219]
9 | 45 | Ac-PVLDLFRELLEEL[Orn]Q[Orn]L[Orn]-NH2 (SMILES CC(=O)N1CCC[C@H]1C(=O)N[C@H](C(=O)N[C@@H](CC(C)C)C(=O)N[C@@H](CC(=O)O)C(=O)N[C@@H](CC(C)C)C(=O)N[C@@H](Cc1ccccc1)C(=O)N[C@@H](CCCNC(=N)N)C(=O)N[C@@H](CCC(=O)O)C(=O)N[C@@H](CC(C)C)C(=O)N[C@@H](CC(C)C)C(=O)N[C@@H](CCC(=O)O)C(=O)N[C@@H](CCC(=O)O)C(=O)N[C@@H](CC(C)C)C(=O)N[C@@H](CCCN)C(=O)N[C@@H](CCC(N)=O)C(=O)N[C@@H](CCCN)C(=O)N[C@@H](CC(C)C)C(=O)N[C@@H](CCCN)C(N)=O)C(C)C) [peptide 211]
10 | 29 | Ac-PVLDLFRELLNELLQKLK-NH2 [peptide 218]
11 | 10 | GVLELFLNLLERLLDALQKKLK [peptide 177]
12 | 8 | PVLELFENLLERWLDALQKKLK [peptide 181]
13 | 75 | Ac-NVLDLFRELLEELKQKLK-NH2 [peptide 200]
14 | 80 | Ac-GVLDLFRELLEELKQKLK-NH2 [peptide 198]
15 | 8 | PVLDAFRELLEALAQLKK [peptide 223]
16 | 6 | PLLELFENLLEKLLDALQKKLK [peptide 183]
17 | 100 | Ac-PVLDLFKELLEELKQKLK-NH2 [peptide 192]
18 | 58 | GVLDLFRELLNELLEALKQKLK [peptide 18]
19 | 76 | Ac-PVLDLFRELWEELKQKLK-NH2 [peptide 199]
20 | 9 | PVLELFDNLLEKLLEALQKKLR [peptide 178]
21 | 59 | PVLELFKELLQELLEALKQKLK [peptide 17]
22 | 70 | Ac-PALELFKDLLEELRQKLR-NH2 [peptide 202]
23 | 1 | PVLDAFRELGEALLQLKK [peptide 226]
24 | 81 | Ac-PLLDLFRELLEELKQKLK-NH2 [peptide 197]
25 | 30 | PVLDLFRELLELLKQKLK [peptide 217]
26 | 59 | PVLDLLRELLNELLEALKQKLK [peptide 16]

Row | ACTIVITY (%) LCAT [%] | Binder
27 | 46 | PVLDLFRELLEELKQKLK [peptide 210]
28 | 35 | PVLELFKELLEELKQKLK [peptide 216]
29 | 58 | [dP]VLDLFRELLNEGLEALKQKLK [peptide 19]
30 | 22 | PVLDLFRELLEELQKKLK [peptide 220]
31 | 7 | PVLELFENLLEKLLEALQKKLK [peptide 182]
32 | 12 | Ac-DVLDLFRELLEELKQKLK-NH2 [peptide 221]
33 | 39 | Ac-[dP]VLDLFRELLEELKQKLK-NH2 (SMILES CC(=O)N1CCC[C@@H]1C(=O)N[C@H](C(=O)N[C@@H](CC(C)C)C(=O)N[C@@H](CC(=O)O)C(=O)N[C@@H](CC(C)C)C(=O)N[C@@H](Cc1ccccc1)C(=O)N[C@@H](CCCNC(=N)N)C(=O)N[C@@H](CCC(=O)O)C(=O)N[C@@H](CC(C)C)C(=O)N[C@@H](CC(C)C)C(=O)N[C@@H](CCC(=O)O)C(=O)N[C@@H](CCC(=O)O)C(=O)N[C@@H](CC(C)C)C(=O)N[C@@H](CCCCN)C(=O)N[C@@H](CCC(N)=O)C(=O)N[C@@H](CCCCN)C(=O)N[C@@H](CC(C)C)C(=O)N[C@@H](CCCCN)C(N)=O)C(C)C) [peptide 214]
34 | 74 | Ac-PLLDLFKELLEELKQKLK-NH2 [peptide 201]
35 | 3 | PVLELFENLLERLLDALQ[Orn][Orn]L[Orn] [peptide 185]
36 | 8 | PVLELFDNLLDKLLDALQKKLR [peptide 180]
37 | 50 | Ac-PVLELLKELLEELKQKLK-NH2 [peptide 207]
38 | 43 | Ac-PVLDLF[Orn]ELLEEL[Orn]Q[Orn]LK-NH2 (SMILES CC(=O)N1CCC[C@H]1C(=O)N[C@H](C(=O)N[C@@H](CC(C)C)C(=O)N[C@@H](CC(=O)O)C(=O)N[C@@H](CC(C)C)C(=O)N[C@@H](Cc1ccccc1)C(=O)N[C@@H](CCCN)C(=O)N[C@@H](CCC(=O)O)C(=O)N[C@@H](CC(C)C)C(=O)N[C@@H](CC(C)C)C(=O)N[C@@H](CCC(=O)O)C(=O)N[C@@H](CCC(=O)O)C(=O)N[C@@H](CC(C)C)C(=O)N[C@@H](CCCN)C(=O)N[C@@H](CCC(N)=O)C(=O)N[C@@H](CCCN)C(=O)N[C@@H](CC(C)C)C(=O)N[C@@H](CCCCN)C(N)=O)C(C)C) [peptide 212]
39 | 0 | Ac-PVLDLFRELGEELKQKLK-NH2 [peptide 227]
40 | 105 | GVLDLFRELLNELLEALKQKLKK [peptide 2]
41 | 48 | Ac-PALELFKDLLEELRQRLK-NH2 [peptide 208]
42 | 38 | Ac-PVLDLFRELLEEWKQKLK-NH2 [peptide 215]
43 | 88 | Ac-PVLELFRELLEELKQKLK-NH2 [peptide 194]
44 | 8 | PVLDAFRELLEALLQLKK [peptide 222]
45 | 66 | Ac-AVLDLFRELLEELKQKLK-NH2 [peptide 203]
46 | 8 | PVLDLFREGWEELKQKLK [peptide 224]
47 | 47 | PVLDLFRELLNELLQKLK [peptide 209]
48 | 63 | Ac-PVLDFFRELLEELKQKLK-NH2 [peptide 204]
49 | 100 | Ac-PVLDLLRELLEELKQKLK-NH2 [peptide 191]
50 | 42 | Ac-PALELFKDLLEEFRQRLK-NH2 [peptide 213]
51 | 60 | Ac-PVLDLFREWLEELKQKLK-NH2 [peptide 205]
